Assay results taken from patent US20250282885A1 (VST BIO, published 2025).

How the values were obtained:
[1] = target: T1, human Sdc2 (human, UniProt P34741 19-144, limits assumed); test: Octet tandem binning; saturating Ab m7 19844-R3-P1-E07
T1 construct: Antigen of the Octet tandem binning, loaded on biosensors at 100 nM; also called huSdc2; hSdc2

[2] = target: T1, human Sdc2; test: Octet BLI, heading box over the sensorgram
Method: (§1) In order to characterize the binding affinity and in vivo/in vitro functional ability of the twelve clones generated by the previous studies and disclosed in Table 1, a series of assays were performed on each clone. These assays measured the affinity of each antibody clone for human, pig, and mouse Sdc2 using an Octet® binding assay system. Additionally, the functional ability of each clone to inhibit VEGFA-driven permeability (see Santiago, et al. (2021) J Am Heart Assoc. 10(18):e020521) was assessed in two therapeutic settings: a “prevention” study in which three concentrations of antibody (5 μg/ml, 10 μg/ml, 15 μg/ml, 20 μg/ml, and/or 40 μg/ml depending on the study) were pre-incubated for an hour before administration of 100 ng/ml of VEGFA, and a “treatment” study in which 3 hours of pre-treatment with 100 ng/ml VEGFA were followed by treatment with antibody at 20 μg/ml or 40 μg/ml. Results are shown for 8-G17 in FIG. 8 and FIG. 9, 20-H19-AB in FIG. 10 and FIG. 11 (FIG. 12 for monkey ECs), R3-P3-C11 in FIG. 13 and FIG. 14, R4M-P3-E06 in FIG. 15 and FIG. 16, R3-P3-E09 in FIG. 17 and FIG. 18, R3-P1-C02 in FIG. 19 and FIG. 20, R3-P3-A12 in FIG. 21 and FIG. 22, R4M-P3-A12 in FIG. 23 and FIG. 24, and R4M-P1-A10 in FIG. 25 and FIG. 26.

[3] = target: T2, mouse Sdc2 (mouse, UniProt P43407 19-145, limits assumed); test: Octet BLI, heading box over the sensorgram
T2 construct: Immobilised on Maxisorp plates for panning and ELISA; also called mSdc2; moSdc2
T2 sequence (P43407 19-145 limits assumed): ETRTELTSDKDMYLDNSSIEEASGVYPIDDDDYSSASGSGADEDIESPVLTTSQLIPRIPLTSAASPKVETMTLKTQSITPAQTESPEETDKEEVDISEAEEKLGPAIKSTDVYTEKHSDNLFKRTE
Method: as §1

[4] = target: T1, human Sdc2; test: Octet tandem binning; Buffer in place of a saturating Ab
[5] = target: T3, pig Sdc2 (pig, UniProt F1S0L5 19-145); test: Octet BLI, HIS1K sensor loaded with pigSdc2, antibody as sample; Full R2 0.9799
T3 construct: also called pSdc2

[6] = target: T1, human Sdc2; test: Octet tandem binning; saturating Ab f3 19838-6N03-A
[7] = target: T1, human Sdc2; test: Octet tandem binning; saturating Ab m8 19844-R4M-P1-B01 (marked non-binding ligand)
[8] = target: T1, human Sdc2; test: Octet tandem binning; saturating Ab m4 19844-R4M-P1-A10
Method in brief: (§2)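 Human Sdc2 at 100 nM was loaded on biosensors, dipped in saturating antibody (25 μg/ml, 240 s), then competing antibody (5 μg/ml, 180 s). Competing-antibody signal was normalized to binding without saturating antibody (buffer), then clustered with pvclust.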

[9] = target: T1, human Sdc2; test: Octet tandem binning; saturating Ab m6 19838-20H19-AA (marked non-binding ligand)
[10] = target: T1, human Sdc2; test: Octet tandem binning; saturating Ab f4 19844-R3-P3-C11
Method in brief: as §2

[11] = target: T1, human Sdc2; test: Octet tandem binning; saturating Ab f8 19844-R4M-P2-C02
[12] = target: T1, human Sdc2; test: Octet tandem binning; saturating Ab f6 19844-R3-P3-E09
Method in brief: as §2

[13] = target: human Sdc2 on Human Umbilical Vein Endothelial Cells (HUVEC) (human, UniProt P34741 19-201); test: cell-based or functional assay
human Sdc2 on Human Umbilical Vein Endothelial Cells (HUVEC), sequence (P34741 19-201 limits assumed): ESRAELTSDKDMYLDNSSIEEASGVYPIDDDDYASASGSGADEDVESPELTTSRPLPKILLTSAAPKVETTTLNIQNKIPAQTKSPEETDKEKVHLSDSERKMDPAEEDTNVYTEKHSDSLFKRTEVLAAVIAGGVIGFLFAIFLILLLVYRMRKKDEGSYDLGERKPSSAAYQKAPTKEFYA

[14] = target: T1, human Sdc2; test: Kd (human Sdc2), summary table of the mAbs
[15] = target: T1, human Sdc2; test: Octet tandem binning; saturating Ab f5 19844-R4M-P3-E06
[16] = target: T1, human Sdc2; test: Octet tandem binning; saturating Ab f7 19844-R3-P3-A12
[17] = target: T1, human Sdc2; test: Octet tandem binning; saturating Ab f11 19838-20-H19-A
[18] = target: T1, human Sdc2; test: Octet tandem binning; saturating Ab f12 19838-6-N03-A

T1 sequence (P34741 19-144 limits assumed): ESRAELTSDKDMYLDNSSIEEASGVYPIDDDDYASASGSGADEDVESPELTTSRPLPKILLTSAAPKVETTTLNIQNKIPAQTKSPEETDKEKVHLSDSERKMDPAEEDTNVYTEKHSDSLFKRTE

B1: R4M-P3-A12 (antibody, human IgG1, kappa, V domains shown)
VH: EVQLVESGGGVVQPGGSLRLSCAASGFTFSDHYMSWIRQAPGKGLEWVSYLSGSGTSIYYADSVKGRFTISRDNAKKSLYLQMNSLRAEDTAVYYCARVGPAAGNAFDIWGQGTMVTVSS
VL: QSVLTQPPSASGTPGQRVTISCSGSSSNIGSNYVYWYQQLPGTAPKLLIYRNNQRPSGVPDRFSGSKSGTSASLAITGLQAEDEADYYCQSYDSSLSGVVFGGGTKLTVLR
Question: What does the source list for B1?
Answer: raw competing-Ab binding signal [1]: 0.132; Kd [2]: ~14 nM; Kd [3]: ~11.6 nM; raw competing-Ab binding signal [4]: 0.0926; Kd [5]: 15 nM; koff [5]: 0.0419 s⁻¹; kon [5]: 2.8e+06 M⁻¹ s⁻¹; raw competing-Ab binding signal [6]: 0.106; raw competing-Ab binding signal [7]: 0.0929; raw competing-Ab binding signal [8]: -0.0712; raw competing-Ab binding signal [9]: 0.165; raw competing-Ab binding signal [10]: -0.0875; raw competing-Ab binding signal [11]: 0.0077; raw competing-Ab binding signal [12]: -0.0526; % Inhibition of VEGFA-induced permeability at 24hrs (20ug/ml) [13]: 60%; Kd [14]: 14 nM; raw competing-Ab binding signal [15]: 0.0642; raw competing-Ab binding signal [16]: -0.0178; raw competing-Ab binding signal [17]: 0.165; raw competing-Ab binding signal [18]: 0.136
